Laboratory results from the DeepSol protein solubility set.

Assay: soluble on expression in E. coli; label from the status in PepcDB or PDB records

Sequence | soluble on expression in E. coli
MNTGAQIYRNSSSSIDKNIVDRIYKDGFLIAQYGLYMKRERDYKTFKVPVDAGFSCPNKDGTIDTRGCIFCPKMGRPISVEYCNIKYSLKDQIETQVKQNKEKGIGKFYVYFYPGTNTHGTPERLKELWDYALSFEDVIGISIGTRPDCLEDEKLDILENYVKQGYEIWIDLGIQTMHDKTLDFLNRKHSSNDIRRVLIECKKRGILVCGHIILGLPDESWNMMMETSKMLSDLEIDALKIYPLVVIENTELEEIYWKGEYKSLDEKQYIHLVSDFLEHLSPYVIIQRVSKDKVPDEIKISPEWSLRRLRILNEVSKELARRNSKQGSKYKK | not soluble
MGSDKIHHHHHHMELVSVKRIWEQGEHNAFTDLVLYQGTLFCVFREGSAHVSPDGALRILRSHDAGETWQSVALLTSAHADLRDGKLIEFRGELLLLGGGTQHDKSGLQSYLWRSKDGVHWSEPQAVADKGYWLWRLTEHQDALYGVGYRAGPDGDTRLYKSDDSVEFTPWMPVFNNQGYVNESSLVFHQGSCFCLLRRDPVWSDEFLGLLGHSLSPFKQWTWQTLDKRIGGPVLFVYQSRLMAVVRLYEGDIRTALVEINQDTGQLHEWLTLPSQGDTSYAGIVLDGDDLLVSYYSSHEQAMVSDLERSDTQDDKAQDKFKTMIYFAKIKLGQN | not soluble
PSHSGAAIFEKVSGIIAINEDVSPAELTWRSTDGDKVHTVVLSTIDKLQATPASSEKMMLRLIGKVDESKKRKDNEGNEVVPKPQRHMFSFNNRTVMDNIKMTLQQIISRYKDAD | soluble
MAHHHHHHMSFKQVFLRDNEECQAFPWDALTHPSQSAGEERRTIHHHLAWPAVCEREEAVMGTQPARKVSELTSVSFFLQPPFAIPRRKTGRSSLGCRHDRPLYAAGSAGPRCGDKPTLFVGAAEADFCDDMGWRQRSNSPVSSVEHNAEDDGEDFDVEPVVLKRSLSEKDRRKRLHLSEMSARLCHAFAMKPFRLACGLGLDESDDGVGMENQSGWGAGEEAAVPLREKDDDDDTTPARQTAPISETQRGNTALNFTDNDLSVVRAIALALMEEGEKKRRQEMRRKTN | not soluble
MLPLSLLKTAQNHPMLVELKNGETYNGHLVSCDNWMNINLREVICTSRDGDKFWRMPECYIRGSTIKYLRIPDEIIDMVKEEVVAKGRGRGGLQQQKQQKGRGMGGAGRGVFGGRGRGGIPGTGRGQPEKKPGRQAGKQ | soluble
NELSQERTARLNELQRALVMMDSDFRQIALRQTRTNGEEPSKKLLHWADYLLDSDNKGIMFARLGWHNPQQQFPRGEVTKVGYRIKDERLERVWWRYPDTPAGQEGVVTPLLSDVEELNVRFYDGKQWINEWSNELTLPAAISVELTLKDYGKIARTYLTPEGN | soluble
MSLAEQLAIADLQVDIKQIPLKQPFVTALHRVDAVNAVRVTVRLANGVTGVGTCTPNEKVTGDSLSSARAVIEETIKPLVLGKNLTDWKELLNTVKTSIVHNAPAKAAVEIALYNTRANLFGLTLSQLLGGKGGSVETDYTISIGKAEQMIADAQKMVDQGFKTLKLKLGAGHLKRDIKLVEDLAYAAGPMVHLRLDMNQACDVRQTMQAAEYWHKQGLLIDFIEQPVPAWDLDSMAYLTRHSPYPIMADESVESYEDAQRVLAKNACDYINIKLMKTGGLSEAQKINDLAESRGVPTMVGSMIESIESLAAACAFYRANPNTIFADLDAIFMVDQDPDLNSYAECVGDNIVVREGHHHHHH | soluble
MPSNIRESDASCLEMIRSIIRSTADDNSKWVEIFVDFENAQPTDEEREIYNMAEEVLNDCDLVLADVSSYGNGCYAERNQLKNDSDTQALKVLMTKLEPFVARTCSYYEHVAKIEKIVPIILWELSSGPLPLEEQLANKQSIAKQFARLIGFVLDFDVVKMRTAQITNDYSYYRRAKHIVYQDFEDQGVPELPQVQMFLCEGNPMLKALCNGVDSYMQTHQSLPINNTTDVFVTIINVCRFMLANDECLARLTDSSKHLCCRVMTGLVILFDHVDQNGAFVSNSSIDMRDVVRLIKLNTTPEQSDCLLAGLRFTTKHYNDSSTPKSLRHLIEVK | soluble
MYHGMNPSNGDGFLEQQQQQQQPQSPQRLLAVILWFQLALCFGPAQLTGGFDDLQVCADPGIPENGFRTPSGGVFFEGSVARFHCQDGFKLKGATKRLCLKHFNGTLGWIPSDNSICVQEDCRIPQIEDAEIHNKTYRHGEKLIITCHEGFKIRYPDLHNMVSLCRDDGTWNNLPICQGCLRPLASSNGYVNISELQTSFPVGTVISYRCFPGFKLDGSAYLECLQNLIWSSSPPRCLALEGGRPEHLFPVLYFPHIRLAAAVLYFCPVLKSSPTPAPTCSSTSTTTSLF | soluble
